The record followed here is article PMC9044722.

Test [1] has as its target His-CRM1 recombinant protein (UniProt O14980). The test can be described thus: SPR; without TLNC1. Conditions: natural protein; chains chain; remark: other sources report otherwise.
The target is the same in test [2]. The test can be described thus: SPR; with TLNC1 (lncRNA). The note with it: natural protein; chains chain; remark: other sources report otherwise.

Sequence of UniProt O14980 (O14980 whole entry): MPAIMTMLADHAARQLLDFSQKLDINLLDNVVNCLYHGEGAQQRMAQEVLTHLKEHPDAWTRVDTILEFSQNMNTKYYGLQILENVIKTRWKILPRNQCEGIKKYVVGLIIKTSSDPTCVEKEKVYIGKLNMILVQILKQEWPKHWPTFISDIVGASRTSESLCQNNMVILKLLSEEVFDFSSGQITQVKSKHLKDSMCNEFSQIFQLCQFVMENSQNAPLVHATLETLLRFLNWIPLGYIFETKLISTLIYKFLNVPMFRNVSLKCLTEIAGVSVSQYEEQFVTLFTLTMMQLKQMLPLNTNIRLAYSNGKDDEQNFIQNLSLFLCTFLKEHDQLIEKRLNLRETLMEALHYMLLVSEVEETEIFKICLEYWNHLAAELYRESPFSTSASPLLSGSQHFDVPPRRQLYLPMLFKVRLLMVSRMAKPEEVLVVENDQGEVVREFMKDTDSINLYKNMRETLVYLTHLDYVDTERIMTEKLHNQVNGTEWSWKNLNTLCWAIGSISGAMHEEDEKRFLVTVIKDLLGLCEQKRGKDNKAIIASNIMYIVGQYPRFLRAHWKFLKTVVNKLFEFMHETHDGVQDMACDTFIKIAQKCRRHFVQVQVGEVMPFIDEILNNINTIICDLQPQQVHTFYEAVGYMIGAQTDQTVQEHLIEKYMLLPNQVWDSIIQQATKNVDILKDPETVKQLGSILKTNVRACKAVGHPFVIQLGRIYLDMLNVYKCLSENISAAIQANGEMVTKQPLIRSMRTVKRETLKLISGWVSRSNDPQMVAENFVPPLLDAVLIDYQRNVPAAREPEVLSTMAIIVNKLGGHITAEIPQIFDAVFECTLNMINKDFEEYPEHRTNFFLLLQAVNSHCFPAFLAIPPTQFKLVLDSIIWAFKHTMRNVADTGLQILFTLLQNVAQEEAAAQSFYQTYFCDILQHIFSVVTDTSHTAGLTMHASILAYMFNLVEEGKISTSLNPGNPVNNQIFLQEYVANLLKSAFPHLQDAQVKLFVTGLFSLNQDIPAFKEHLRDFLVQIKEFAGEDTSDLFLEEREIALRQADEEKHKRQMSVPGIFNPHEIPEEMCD

Usually Kd stands for the equilibrium constant for the complex coming apart. Turning to “His-TPR recombinant protein, P12270 1-2363”, the dissociation constant Kd in test [1] was found to be 0.181 µM; in test [2] it was 0.0316 µM.
